Laboratory results from patent publication US20020123623.

Tested on: T1, Ntlim1 (effector plasmid, BY-2 protoplasts) (Nicotiana tabacum)
T1 sequence: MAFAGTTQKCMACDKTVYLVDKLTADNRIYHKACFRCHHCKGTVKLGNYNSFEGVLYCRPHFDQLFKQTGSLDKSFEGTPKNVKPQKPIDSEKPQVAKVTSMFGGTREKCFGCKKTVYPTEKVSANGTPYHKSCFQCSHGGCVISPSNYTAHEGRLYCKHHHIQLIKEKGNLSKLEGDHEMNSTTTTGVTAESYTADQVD
Assay: cell_activity
Details: about three times GUS expression vs reporter alone in tobacco BY-2 protoplasts; direct binding not measured

CCACTTGAGTAC (double strand)
activity: 3 fold
